Target: PKC δ (rat), P09215
Assay: cell-based or functional assay

Chain of PKC δ (rat), P09215 (P09215 whole entry, stated change not applied): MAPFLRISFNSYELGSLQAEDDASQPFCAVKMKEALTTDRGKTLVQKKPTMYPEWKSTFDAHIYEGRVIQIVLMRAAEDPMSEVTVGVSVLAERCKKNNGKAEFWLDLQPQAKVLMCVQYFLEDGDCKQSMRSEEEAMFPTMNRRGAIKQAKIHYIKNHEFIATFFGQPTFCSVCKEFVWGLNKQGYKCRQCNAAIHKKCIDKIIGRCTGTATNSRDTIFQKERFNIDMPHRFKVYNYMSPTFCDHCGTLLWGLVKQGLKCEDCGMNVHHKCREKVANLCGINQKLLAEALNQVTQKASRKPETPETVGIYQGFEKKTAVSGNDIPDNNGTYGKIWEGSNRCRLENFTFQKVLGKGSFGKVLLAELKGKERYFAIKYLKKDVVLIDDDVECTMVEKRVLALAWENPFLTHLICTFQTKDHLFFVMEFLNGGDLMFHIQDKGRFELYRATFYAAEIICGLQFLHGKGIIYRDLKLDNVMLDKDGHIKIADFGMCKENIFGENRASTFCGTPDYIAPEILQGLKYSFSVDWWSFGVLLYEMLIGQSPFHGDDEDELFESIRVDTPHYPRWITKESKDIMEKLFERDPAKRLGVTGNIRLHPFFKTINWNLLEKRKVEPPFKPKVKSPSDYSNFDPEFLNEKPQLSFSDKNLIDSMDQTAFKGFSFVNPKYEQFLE

inhibition of CCK-8 induced NF-κB activation (EMSA band intensity, rat pancreatic acini, 10 µM peptide): 76%
inhibition of TNF-α induced NF-κB activation (EMSA band intensity, rat pancreatic acini, 10 µM peptide): 57%
Binder: SFNSYELGSLRQIKIWFQNRRMKWKK [PKC δ translocation inhibitor δV1-1 conjugated to Drosophila antennapedia peptide]
